{"source": "the supplement of paper PMC9876800", "data": [{"tested_on": "peptide library, one residue held at a place counted from the S/T acceptor", "experiment": "relative phosphorylation of the sub-library (ratio to the mean residue at this position); human; higher = residue favoured", "details": "pThr fixed; at -4", "procedure,_shortened": "(§1)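 Relative sub-library phosphorylation is the ratio of each sub-library's signal to the mean residue at that position. The signal came from phosphorimaging of spots on streptavidin membranes, quantified by densitometry, after purified recombinant kinases reacted with biotinylated degenerate peptide sub-libraries in 384-well plates. Reactions held 50 μM peptide and 50 μM ATP spiked with γ-32P-ATP for 90 min under kinase-specific conditions.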", "values": [{"substance": "MELK, construct: aa1-340 (from UniProt Q14680)", "relative phosphorylation": 0.438}, {"substance": "CLK3, construct: Full length (from UniProt P49761)", "relative phosphorylation": 1.27}, {"substance": "RPS6KA6, construct: Full length (from UniProt Q9UK32)", "relative phosphorylation": 0.692}, {"substance": "GRK5, construct: Full length (from UniProt P34947)", "relative phosphorylation": 1.75}, {"substance": "TTK, construct: Full length (from UniProt P33981)", "relative phosphorylation": 1.37}, {"substance": "PRPF4B, construct: aa519-end (from UniProt Q13523)", "relative phosphorylation": 1.72}]}, {"tested_on": "peptide library, one residue held at a place counted from the S/T acceptor", "experiment": "relative phosphorylation of the sub-library (ratio to the mean residue at this position); human; higher = residue favoured", "details": "pThr fixed; at -5", "procedure,_shortened": "as §1", "values": [{"substance": "PAK3, construct: Full length (from UniProt O75914)", "relative phosphorylation": 0.574}, {"substance": "MASTL, construct: Full length (from UniProt Q96GX5)", "relative phosphorylation": 0.94}, {"substance": "MELK, construct: aa1-340 (from UniProt Q14680)", "relative phosphorylation": 0.508}, {"substance": "CLK3, construct: Full length (from UniProt P49761)", "relative phosphorylation": 1.12}, {"substance": "RPS6KA6, construct: Full length (from UniProt Q9UK32)", "relative phosphorylation": 0.543}, {"substance": "GRK5, construct: Full length (from UniProt P34947)", "relative phosphorylation": 1.36}, {"substance": "TTK, construct: Full length (from UniProt P33981)", "relative phosphorylation": 1.41}, {"substance": "PRPF4B, construct: aa519-end (from UniProt Q13523)", "relative phosphorylation": 0.911}]}, {"tested_on": "peptide library, one residue held at a place counted from the S/T acceptor", "experiment": "relative phosphorylation of the sub-library (ratio to the mean residue at this position); human; higher = residue favoured", "details": "pTyr fixed; at +1", "procedure,_shortened": "as §1", "values": [{"substance": "PAK3, construct: Full length (from UniProt O75914)", "relative phosphorylation": 0.635}, {"substance": "MASTL, construct: Full length (from UniProt Q96GX5)", "relative phosphorylation": 0.8}, {"substance": "MELK, construct: aa1-340 (from UniProt Q14680)", "relative phosphorylation": 0.551}, {"substance": "CLK3, construct: Full length (from UniProt P49761)", "relative phosphorylation": 1.23}, {"substance": "RPS6KA6, construct: Full length (from UniProt Q9UK32)", "relative phosphorylation": 1.69}, {"substance": "GRK5, construct: Full length (from UniProt P34947)", "relative phosphorylation": 2.19}, {"substance": "TTK, construct: Full length (from UniProt P33981)", "relative phosphorylation": 0.362}, {"substance": "PRPF4B, construct: aa519-end (from UniProt Q13523)", "relative phosphorylation": 0.586}]}, {"tested_on": "peptide library, one residue held at a place counted from the S/T acceptor", "experiment": "relative phosphorylation of the sub-library (ratio to the mean residue at this position); human; higher = residue favoured", "details": "pTyr fixed; at +2", "procedure,_shortened": "as §1", "values": [{"substance": "PAK3, construct: Full length (from UniProt O75914)", "relative phosphorylation": 2.43}, {"substance": "MASTL, construct: Full length (from UniProt Q96GX5)", "relative phosphorylation": 1.07}, {"substance": "MELK, construct: aa1-340 (from UniProt Q14680)", "relative phosphorylation": 0.407}, {"substance": "CLK3, construct: Full length (from UniProt P49761)", "relative phosphorylation": 0.956}, {"substance": "RPS6KA6, construct: Full length (from UniProt Q9UK32)", "relative phosphorylation": 1.18}, {"substance": "GRK5, construct: Full length (from UniProt P34947)", "relative phosphorylation": 0.868}, {"substance": "TTK, construct: Full length (from UniProt P33981)", "relative phosphorylation": 0.27}, {"substance": "PRPF4B, construct: aa519-end (from UniProt Q13523)", "relative phosphorylation": 0.825}]}, {"tested_on": "peptide library, one residue held at a place counted from the S/T acceptor", "experiment": "relative phosphorylation of the sub-library (ratio to the mean residue at this position); human; higher = residue favoured", "details": "pTyr fixed; at +3", "procedure,_shortened": "as §1", "values": [{"substance": "PAK3, construct: Full length (from UniProt O75914)", "relative phosphorylation": 0.9}, {"substance": "MASTL, construct: Full length (from UniProt Q96GX5)", "relative phosphorylation": 0.973}, {"substance": "MELK, construct: aa1-340 (from UniProt Q14680)", "relative phosphorylation": 0.409}, {"substance": "CLK3, construct: Full length (from UniProt P49761)", "relative phosphorylation": 0.877}, {"substance": "RPS6KA6, construct: Full length (from UniProt Q9UK32)", "relative phosphorylation": 1.86}, {"substance": "GRK5, construct: Full length (from UniProt P34947)", "relative phosphorylation": 1.08}, {"substance": "TTK, construct: Full length (from UniProt P33981)", "relative phosphorylation": 0.696}, {"substance": "PRPF4B, construct: aa519-end (from UniProt Q13523)", "relative phosphorylation": 0.74}]}, {"tested_on": "peptide library, one residue held at a place counted from the S/T acceptor", "experiment": "relative phosphorylation of the sub-library (ratio to the mean residue at this position); human; higher = residue favoured", "details": "pTyr fixed; at +4", "procedure,_shortened": "as §1", "values": [{"substance": "PAK3, construct: Full length (from UniProt O75914)", "relative phosphorylation": 0.76}, {"substance": "MASTL, construct: Full length (from UniProt Q96GX5)", "relative phosphorylation": 0.944}, {"substance": "MELK, construct: aa1-340 (from UniProt Q14680)", "relative phosphorylation": 0.425}, {"substance": "CLK3, construct: Full length (from UniProt P49761)", "relative phosphorylation": 1.3}, {"substance": "RPS6KA6, construct: Full length (from UniProt Q9UK32)", "relative phosphorylation": 1.37}, {"substance": "GRK5, construct: Full length (from UniProt P34947)", "relative phosphorylation": 1.37}, {"substance": "TTK, construct: Full length (from UniProt P33981)", "relative phosphorylation": 0.45}, {"substance": "PRPF4B, construct: aa519-end (from UniProt Q13523)", "relative phosphorylation": 0.735}]}, {"tested_on": "peptide library, one residue held at a place counted from the S/T acceptor", "experiment": "relative phosphorylation of the sub-library (ratio to the mean residue at this position); human; higher = residue favoured", "details": "pTyr fixed; at -1", "procedure,_shortened": "as §1", "values": [{"substance": "PAK3, construct: Full length (from UniProt O75914)", "relative phosphorylation": 0.605}, {"substance": "MASTL, construct: Full length (from UniProt Q96GX5)", "relative phosphorylation": 0.711}, {"substance": "MELK, construct: aa1-340 (from UniProt Q14680)", "relative phosphorylation": 0.709}, {"substance": "CLK3, construct: Full length (from UniProt P49761)", "relative phosphorylation": 1.1}, {"substance": "RPS6KA6, construct: Full length (from UniProt Q9UK32)", "relative phosphorylation": 0.705}, {"substance": "GRK5, construct: Full length (from UniProt P34947)", "relative phosphorylation": 0.964}, {"substance": "TTK, construct: Full length (from UniProt P33981)", "relative phosphorylation": 0.787}, {"substance": "PRPF4B, construct: aa519-end (from UniProt Q13523)", "relative phosphorylation": 1.15}]}, {"tested_on": "peptide library, one residue held at a place counted from the S/T acceptor", "experiment": "relative phosphorylation of the sub-library (ratio to the mean residue at this position); human; higher = residue favoured", "details": "pTyr fixed; at -2", "procedure,_shortened": "as §1", "values": [{"substance": "PAK3, construct: Full length (from UniProt O75914)", "relative phosphorylation": 0.323}, {"substance": "MASTL, construct: Full length (from UniProt Q96GX5)", "relative phosphorylation": 0.771}, {"substance": "MELK, construct: aa1-340 (from UniProt Q14680)", "relative phosphorylation": 0.295}, {"substance": "CLK3, construct: Full length (from UniProt P49761)", "relative phosphorylation": 0.87}, {"substance": "RPS6KA6, construct: Full length (from UniProt Q9UK32)", "relative phosphorylation": 0.517}, {"substance": "GRK5, construct: Full length (from UniProt P34947)", "relative phosphorylation": 2.77}, {"substance": "TTK, construct: Full length (from UniProt P33981)", "relative phosphorylation": 0.765}, {"substance": "PRPF4B, construct: aa519-end (from UniProt Q13523)", "relative phosphorylation": 1.2}]}, {"tested_on": "peptide library, one residue held at a place counted from the S/T acceptor", "experiment": "relative phosphorylation of the sub-library (ratio to the mean residue at this position); human; higher = residue favoured", "details": "pTyr fixed; at -3", "procedure,_shortened": "as §1", "values": [{"substance": "PAK3, construct: Full length (from UniProt O75914)", "relative phosphorylation": 0.743}, {"substance": "MASTL, construct: Full length (from UniProt Q96GX5)", "relative phosphorylation": 0.812}, {"substance": "MELK, construct: aa1-340 (from UniProt Q14680)", "relative phosphorylation": 0.332}, {"substance": "CLK3, construct: Full length (from UniProt P49761)", "relative phosphorylation": 0.997}, {"substance": "RPS6KA6, construct: Full length (from UniProt Q9UK32)", "relative phosphorylation": 0.442}, {"substance": "GRK5, construct: Full length (from UniProt P34947)", "relative phosphorylation": 2.56}, {"substance": "TTK, construct: Full length (from UniProt P33981)", "relative phosphorylation": 0.997}, {"substance": "PRPF4B, construct: aa519-end (from UniProt Q13523)", "relative phosphorylation": 0.791}]}, {"tested_on": "peptide library, one residue held at a place counted from the S/T acceptor", "experiment": "relative phosphorylation of the sub-library (ratio to the mean residue at this position); human; higher = residue favoured", "details": "pTyr fixed; at -4", "procedure,_shortened": "as §1", "values": [{"substance": "PAK3, construct: Full length (from UniProt O75914)", "relative phosphorylation": 0.654}, {"substance": "MASTL, construct: Full length (from UniProt Q96GX5)", "relative phosphorylation": 0.834}, {"substance": "MELK, construct: aa1-340 (from UniProt Q14680)", "relative phosphorylation": 0.382}, {"substance": "CLK3, construct: Full length (from UniProt P49761)", "relative phosphorylation": 1.05}, {"substance": "RPS6KA6, construct: Full length (from UniProt Q9UK32)", "relative phosphorylation": 0.645}, {"substance": "GRK5, construct: Full length (from UniProt P34947)", "relative phosphorylation": 2.29}, {"substance": "TTK, construct: Full length (from UniProt P33981)", "relative phosphorylation": 0.781}, {"substance": "PRPF4B, construct: aa519-end (from UniProt Q13523)", "relative phosphorylation": 0.882}]}, {"tested_on": "peptide library, one residue held at a place counted from the S/T acceptor", "experiment": "relative phosphorylation of the sub-library (ratio to the mean residue at this position); human; higher = residue favoured", "details": "pTyr fixed; at -5", "procedure,_shortened": "as §1", "values": [{"substance": "PAK3, construct: Full length (from UniProt O75914)", "relative phosphorylation": 0.619}, {"substance": "MASTL, construct: Full length (from UniProt Q96GX5)", "relative phosphorylation": 0.784}, {"substance": "MELK, construct: aa1-340 (from UniProt Q14680)", "relative phosphorylation": 0.517}, {"substance": "CLK3, construct: Full length (from UniProt P49761)", "relative phosphorylation": 0.98}, {"substance": "RPS6KA6, construct: Full length (from UniProt Q9UK32)", "relative phosphorylation": 0.647}, {"substance": "GRK5, construct: Full length (from UniProt P34947)", "relative phosphorylation": 1.88}, {"substance": "TTK, construct: Full length (from UniProt P33981)", "relative phosphorylation": 1.47}, {"substance": "PRPF4B, construct: aa519-end (from UniProt Q13523)", "relative phosphorylation": 1.36}]}]}
